# According to PMC5030711, “Investigation of SP94 Peptide as a Specific Probe for Hepatocellular Carcinoma Imaging and Therapy” (Scientific Reports, 2016):
# Values joined by “and” are separate entries in the source; they are usually repeats but may differ in a detail not shown here. Equal entries are not always repeated. “Also recorded” adds a separate entry of the source. Residues, ends and D or L forms follow the SMILES beside them. *: point of attachment. HYNIC = NNc1ccc(C(=O)*)cn1
# Experiments:
# [1] = In vitro stability of ^188Re-HYNIC-SP94 (radio-TLC); assay type: in vitro ADME; conditions: FBS, room temperature, 48 h, mean ± SD
# Experimental: The in vitro stability of ^188Re-HYNIC-SP94 was evaluated by incubating ^188Re-HYNIC-SP94 in normal saline and FBS at room temperature. RCP was analyzed by radio-TLC at 1, 4, 8, 18, 26 and 48 h after incubation to determine the stability.
# Huh-7 cells = assay type: binding, human; conditions: 2 h
# Experimental: The binding affinity of HYNIC-SP94 was assessed via a competitive displacement assay with ^99mTc tricine-EDDA/HYNIC-SP94[35]. Briefly, Huh-7 cells (1 × 10^6) and ^99mTc tricine-EDDA/HYNIC-SP94 (370 kBq) were added to each test tube in the presence of increasing concentrations of the SP94 peptide (from 0.001 nM to 10000 nM) and incubated for 2 h at 37 °C. To remove unbound ^99mTc tricine-EDDA/HYNIC-SP94, the cells were washed three times with cold PBS (1×, pH 7.2) and then centrifuged (600 rpm, 5 min). Radioactivity was determined using a γ-counter. The IC50 value was calculated by fitting experimental data with nonlinear regression using GraphPad Prism (GraphPad Software, San Diego, CA, USA).
# [2] = In vivo stability (RP-HPLC of plasma); set-up: species or system balb/c mice; conditions: within 60 min after tail vein injection (~30 MBq/mouse)
# Experimental: The in vivo stability of ^99mTc tricine-EDDA/HYNIC-SP94 was evaluated in balb/c mice. ^99mTc tricine-EDDA/HYNIC-SP94 (~30 MBq/mouse) in 0.1 mL of saline was injected via the tail vein. Blood was then taken from the heart 10, 30, 60, 120 and 240 min after injection under anesthesia. Blood was collected in a heparin tube and immediately centrifuged (5000 rpm, 5 min) to obtain plasma. A total of 400 μL methanol/trichloromethane (V/V: 4/1) was added to 400 μL of plasma, fully mixed and centrifuged (5000 rpm, 5 min). RP-HPLC analysis was performed with 20 μL supernatant loading filtered by a 0.22 μm filter. The RP-HPLC was equipped with a Zorbax Eclipse XDB-C18 column (4.6 × 150 mm) and the following gradients were used at a flow rate of 1 mL/min: 98% solvent A (0.1% trifluoroacetic in 100% water) and 2% solvent B (0.09% trifluoroacetic in 80% ACN and 20% water): 0~5 min; 2% solvent A and 98% solvent B: 5~10 min; 98% solvent A and 2% solvent B: 10~15 min.
# [3] = In vitro stability of ^99mTc-labeled complexes (radio-TLC); assay type: in vitro ADME; conditions: PBS, normal saline and FBS, 37 °C, 1-12 h
# Experimental: The in vitro stability of the radiolabeled peptide was tested by incubating it in PBS, saline and FBS for 1, 2, 4, 6 and 12 h at 37 °C. After incubation, ^99mTc-labeled complexes were assessed by radio-TLC. Results were plotted as the RCP (%) at different time points.
# Huh-7 tumor-bearing mice = test: Biodistribution study; assay type: in vivo, balb/c nude mice; conditions: mean ± SD; for Tumor uptake: Huh-7 tumor; for Tumor/muscle: ratio
# Excerpt: Four- to six-week-old male athymic nude mice were used for preparation of the xenograft tumor models. Huh-7 and Hela cells were subcutaneously injected at a concentration of 5 × 10^6 cells/mouse in the right front flank of the mice. The mice were ready for biodistribution and microSPECT/CT imaging study when the tumors reached an average diameter of 0.8~1.0 cm (3~4 weeks after inoculation). Animal care and experimental procedures were accordant with the Helsinki Declaration and were approved by the institutional animal care committee.
# Fifteen Huh-7 tumor-bearing mice were randomly divided into three groups. ^99mTc tricine-EDDA/HYNIC-SP94 (~0.74 MBq/mouse) in 0.1 mL of saline was injected via tail vein. At 0.5 and 1.5 h p.i., the mice were anesthetized via 2% isoflurane and sacrificed by cervical dislocation. Immediately after sacrifice, the blood, tumors and organs of interest (heart, lungs, liver, spleen, stomach, small intestine, large intestine, kidneys, muscle and thyroid) were harvested, washed with saline and weighed. Radioactivity was determined using a γ-counter. To determine the specific uptake of ^99mTc tricine-EDDA/HYNIC-SP94, 5 mice received an intravenous injection of 200 μg of unlabeled HYNIC-SP94 as a blocking agent 30 min prior to injection of ^99mTc tricine-EDDA/HYNIC-SP94 (~0.74 MBq/mouse). The mice were sacrificed 30 min p.i. and the experiments performed as described above. Absorption of organs and tissues was calculated as a percentage of the injected dose per gram of tissue mass (%ID/g).
# [4] = 0.5 h p.i., blocking: 200 μg unlabeled HYNIC-SP94 i.v. 30 min prior
smiles,measurement,setting,value
"CC[C@H](C)[C@H](NC(=O)[C@H](CO)NC(=O)[C@H](Cc1ccccc1)NC(=O)[C@H](CO)NC(=O)c1ccc(NN)nc1)C(=O)N[C@H](C(=O)N[C@@H](Cc1c[nH]cn1)C(=O)N[C@H](C(=O)N1CCC[C@H]1C(=O)N[C@H](C(=O)N[C@@H](CC(C)C)C(=O)N1CCC[C@H]1C(=O)N[C@@H](CC(C)C)C(=O)O)[C@@H](C)CC)[C@@H](C)O)[C@@H](C)CC [^188Re-HYNIC-SP94, metal not drawn] ({HYNIC}-SFSIIHTPILPL-OH)",RCP after incubation,[1],91.67 ± 2.36% and > 90%
"CC[C@H](C)[C@H](NC(=O)[C@H](CO)NC(=O)[C@H](Cc1ccccc1)NC(=O)[C@H](CO)NC(=O)c1ccc(NN)nc1)C(=O)N[C@H](C(=O)N[C@@H](Cc1c[nH]cn1)C(=O)N[C@H](C(=O)N1CCC[C@H]1C(=O)N[C@H](C(=O)N[C@@H](CC(C)C)C(=O)N1CCC[C@H]1C(=O)N[C@@H](CC(C)C)C(=O)O)[C@@H](C)CC)[C@@H](C)O)[C@@H](C)CC [HYNIC-SP94, 6-hydrazinonicotinic acid-SP94] ({HYNIC}-SFSIIHTPILPL-OH)",IC50,Huh-7 cells,4.49 ± 0.2 nM
"CC[C@H](C)[C@H](NC(=O)[C@H](CO)NC(=O)[C@H](Cc1ccccc1)NC(=O)[C@H](CO)NC(=O)c1ccc(NN)nc1)C(=O)N[C@H](C(=O)N[C@@H](Cc1c[nH]cn1)C(=O)N[C@H](C(=O)N1CCC[C@H]1C(=O)N[C@H](C(=O)N[C@@H](CC(C)C)C(=O)N1CCC[C@H]1C(=O)N[C@@H](CC(C)C)C(=O)O)[C@@H](C)CC)[C@@H](C)O)[C@@H](C)CC [^99mTc tricine-EDDA/HYNIC-SP94, metal not drawn] ({HYNIC}-SFSIIHTPILPL-OH)",radiochemical purity (RCP) maintained in vivo,[2],about 66%
same,in vitro stability (RCP),[3],highly stable; also recorded: slightly better
same,Blood uptake,"Huh-7 tumor-bearing mice; 0.5 h p.i., blocking",0.99 ± 0.12 %ID/g
same,Blood uptake,"Huh-7 tumor-bearing mice; 0.5 h p.i., non-blocking",1.17 ± 0.37 %ID/g
same,Blood uptake,"Huh-7 tumor-bearing mice; 1.5 h p.i., non-blocking",0.49 ± 0.08 %ID/g
same,Heart uptake,Huh-7 tumor-bearing mice; [4],0.58 ± 0.03 %ID/g
same,Heart uptake,"Huh-7 tumor-bearing mice; 0.5 h p.i., non-blocking, i.v. ~0.74 MBq/mouse",0.54 ± 0.13 %ID/g
same,Heart uptake,"Huh-7 tumor-bearing mice; 1.5 h p.i., non-blocking",0.34 ± 0.03 %ID/g
same,Tumor uptake,Huh-7 tumor-bearing mice; [4],0.34 ± 0.09 %ID/g
same,Tumor uptake,"Huh-7 tumor-bearing mice; 0.5 h p.i., non-blocking",1.02 ± 0.26 %ID/g
same,Tumor uptake,"Huh-7 tumor-bearing mice; 1.5 h p.i., non-blocking",0.74 ± 0.07 %ID/g
same,Kidney uptake,"Huh-7 tumor-bearing mice; 0.5 h p.i., blocking",7.58±2.25 %ID/g
same,Kidney uptake,"Huh-7 tumor-bearing mice; 0.5 h p.i., non-blocking",7.40 ± 2.66 %ID/g
same,Kidney uptake,"Huh-7 tumor-bearing mice; 1.5 h p.i., non-blocking",6.14 ± 0.10 %ID/g
same,Large intestine uptake,"Huh-7 tumor-bearing mice; 0.5 h p.i., blocking",0.54 ± 0.08 %ID/g
same,Large intestine uptake,"Huh-7 tumor-bearing mice; 0.5 h p.i., non-blocking",0.70 ± 0.09 %ID/g
same,Large intestine uptake,"Huh-7 tumor-bearing mice; 1.5 h p.i., non-blocking",0.48 ± 0.02 %ID/g
same,Liver uptake,"Huh-7 tumor-bearing mice; 0.5 h p.i., blocking",2.07 ± 0.20 %ID/g
same,Liver uptake,"Huh-7 tumor-bearing mice; 0.5 h p.i., non-blocking",2.39 ± 1.55 %ID/g
same,Liver uptake,"Huh-7 tumor-bearing mice; 1.5 h p.i., non-blocking",1.98 ± 0.15 %ID/g
same,Lung uptake,"Huh-7 tumor-bearing mice; 0.5 h p.i., blocking",2.06 ± 0.18 %ID/g
same,Lung uptake,"Huh-7 tumor-bearing mice; 0.5 h p.i., non-blocking",2.10 ± 0.43 %ID/g
same,Lung uptake,"Huh-7 tumor-bearing mice; 1.5 h p.i., non-blocking",1.45 ± 0.04 %ID/g
same,Muscle uptake,"Huh-7 tumor-bearing mice; 0.5 h p.i., blocking",0.23 ± 0.05 %ID/g
same,Muscle uptake,"Huh-7 tumor-bearing mice; 0.5 h p.i., non-blocking",0.30 ± 0.05 %ID/g
same,Muscle uptake,"Huh-7 tumor-bearing mice; 1.5 h p.i., non-blocking",0.16 ± 0.02 %ID/g
same,Small intestine uptake,"Huh-7 tumor-bearing mice; 0.5 h p.i., blocking",0.78 ± 0.11 %ID/g
same,Small intestine uptake,"Huh-7 tumor-bearing mice; 0.5 h p.i., non-blocking",0.97 ± 0.22 %ID/g
same,Small intestine uptake,"Huh-7 tumor-bearing mice; 1.5 h p.i., non-blocking",0.73 ± 0.07 %ID/g
same,Spleen uptake,"Huh-7 tumor-bearing mice; 0.5 h p.i., blocking",1.05 ± 0.27 %ID/g
same,Spleen uptake,"Huh-7 tumor-bearing mice; 0.5 h p.i., non-blocking",0.84 ± 0.30 %ID/g
same,Spleen uptake,"Huh-7 tumor-bearing mice; 1.5 h p.i., non-blocking",0.67 ± 0.04 %ID/g
same,Stomach uptake,"Huh-7 tumor-bearing mice; 0.5 h p.i., blocking",0.84 ± 0.06 %ID/g
same,Stomach uptake,"Huh-7 tumor-bearing mice; 0.5 h p.i., non-blocking",0.85 ± 0.18 %ID/g
same,Stomach uptake,"Huh-7 tumor-bearing mice; 1.5 h p.i., non-blocking",0.68 ± 0.09 %ID/g
same,Thyroid uptake,"Huh-7 tumor-bearing mice; 0.5 h p.i., blocking",0.52 ± 0.04 %ID/g
same,Thyroid uptake,"Huh-7 tumor-bearing mice; 0.5 h p.i., non-blocking",0.47 ± 0.09 %ID/g
same,Thyroid uptake,"Huh-7 tumor-bearing mice; 1.5 h p.i., non-blocking",0.27 ± 0.03 %ID/g
same,Tumor/muscle,"Huh-7 tumor-bearing mice; 0.5 h p.i., blocking",1.56 ± 0.06
same,Tumor/muscle,"Huh-7 tumor-bearing mice; 0.5 h p.i., non-blocking",3.96 ± 0.06
same,Tumor/muscle,"Huh-7 tumor-bearing mice; 1.5 h p.i., non-blocking",4.55 ± 0.10
